Measured values reported in patent US20220041739A1 (UNIVERSITY OF ULSTER, published 2022).

Target: T1, IL-1R1 Fc fusion protein
T1 construct: Used as immunogen and as ELISA coating antigen at 1 ug/ml; also called IL-1R1 immunogen
T1 chain: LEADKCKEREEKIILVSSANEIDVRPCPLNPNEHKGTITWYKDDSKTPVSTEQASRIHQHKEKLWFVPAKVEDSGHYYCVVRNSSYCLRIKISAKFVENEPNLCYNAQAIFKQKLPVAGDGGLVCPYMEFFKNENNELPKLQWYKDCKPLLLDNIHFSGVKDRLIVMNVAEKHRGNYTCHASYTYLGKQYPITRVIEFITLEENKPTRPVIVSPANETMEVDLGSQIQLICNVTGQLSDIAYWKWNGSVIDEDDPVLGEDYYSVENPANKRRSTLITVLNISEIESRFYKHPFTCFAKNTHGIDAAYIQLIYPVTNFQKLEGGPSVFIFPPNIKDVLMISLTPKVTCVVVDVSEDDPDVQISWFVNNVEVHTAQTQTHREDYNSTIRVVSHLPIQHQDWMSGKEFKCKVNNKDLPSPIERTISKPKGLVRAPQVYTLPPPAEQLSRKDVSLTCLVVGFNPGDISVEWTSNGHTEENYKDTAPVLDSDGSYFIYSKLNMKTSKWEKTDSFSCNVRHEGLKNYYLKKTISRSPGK
Test: ELISA of hybridoma supernatants on coated IL-1R1, with APO-A1 as negative control
Experimental: The day prior to screening, a Maxi Sorp plate was coated by adding 100 μl/well of 50 mM sodium carbonate coating buffer (pH 9.5) containing the IL-1R1 at 1 μg/ml. A separate coating solution was prepared by diluting APO-A1 in the same coating buffer at 1 μg/ml. […] This plate was incubated overnight at 4° C. in static conditions.
Eleven days after fusion, protoclones were screened by ELISA. 20× Maxi Sorp 96 well plates were coated as described herein using APO-A1 at 1 μg/ml as the negative control for specificity. The coating solution was removed and the plates were blocked as described herein. Samples were prepared by removing 160 μl of supernatant from each well of the ten fusion plates, limiting dilution plates, or 24-well plates and transferring to fresh 96 well culture plates containing 50 μl 1×PBS. After 2 hours of blocking, the blocking solution was removed, and the plates were washed 3× with PBS-T. The samples from each dilution plate were loaded onto the ELISA plates at 100 μl/well by adding 1 row from each dilution plate per 2 rows on the ELISA plates to account for specificity of the coating antigens. Two wells per ELISA were incubated with 100 μl 1×PBS as a negative control. These samples were incubated at 150 rpm for 2 hours at room temperature.

binding result: binds
B1: Anti-IL-1R1 monoclonal antibody produced from clone F237 5D1-1A8-2A5 (antibody, V domains shown)
VH: QIQLVQSGPELRKPGETVRISCKASGYPFTTAGLQWVQKMSGKGLKWIGWMNTQSEVPKYAEEFKGRIAFSLETAASTAYLQINNLKTEDTATYFCAKSVYFNWRYFDVWGAGTTVTVSS
VL: DIVMTQSPATLSVTPGDRVSLSCRASQSISDYLSWYQQRSHESPRLIIKYASQSISGIPSRFSGSGSGSDFTLSINSVEPEDVGVYYCQHGHSFPLTFGSGTKLELKR
notes: Mouse hybridoma antibody tested as culture supernatant; also called first antibody (to IL-1R1)
